Test results taken from PMC3867114, “Kinetic analysis of the interactions between plant thioredoxin and target proteins” (Frontiers in Plant Science, 2013).

Assays:
[1] = target: the molecule itself; test: mixed disulfide complex formation, non-reducing SDS-PAGE with N-terminal sequencing; 50 μM Trxh1CS and 50 μM PrxQ incubated for the periods indicated, quenched with 5% TCA, non-reducing SDS-PAGE
[2] = target: the molecule itself; test: SEC; TSK-G2000SWXL in H buffer, 280 nm; as a2 but without NEM treatment before the chromatography (for MDH: second round of the fractionated complex)
[3] = target: Trxh1 mutant with a C43S substitution (Arabidopsis thaliana) (UniProt P29448); test: SPR; Biacore X, 25°C; Trx variant immobilised as ligand on a CM5 chip by amine coupling (800–900 RU); target protein injected as analyte; H buffer (10 mM HEPES-NaOH, 150 mM NaCl, 50 μM EDTA, pH 7.4) with 0.005% Surfactant P20; 1:1 model for MDH, double exponential model for PrxQ; apparent (mixed disulfide formation with Trxh1CS)

koff [3] | kon [3] | Binder | binding result [1] | binding result [2]
– | – | Trxh1 mutant with a C43S substitution (natural protein, Arabidopsis thaliana, UniProt P29448 1-114, looked up, thioredoxin h1 (Trxh1), cytosolic, Arabidopsis thaliana, AT3G51030, with C43S; Lacks the second cysteine of the catalytic motif; also called Trxh1CS; Trxh1CS mutant; source: expressed and purified as the wild-type Trxh1, with 0.5 mM DTT in all purification procedures) MASEEGQVIACHTVETWNEQLQKANESKTLVVVDFTASWCGPSRFIAPFFADLAKKLPNVLFLKVDTDELKSVASDWAIQAMPTFMFLKEGKILDKVVGAKKDELQSTIAKHLA | binds | –
0.000301 s⁻¹ | 247 M⁻¹ s⁻¹ | Arabidopsis thaliana cytosolic malate dehydrogenase, oxidized form (enzyme, UniProt P93819 1-332, looked up, Cys330–Cys330 intermolecular disulfide bond (oxidized form), cytosolic malate dehydrogenase (MDH), Arabidopsis thaliana, AT1G04410; also called MDH; oxidized MDH; source: cloned and purified as described in earlier work; oxidized by incubation with 50 μM CuCl2 for 1 h at 30°C) MAKEPVRVLVTGAAGQIGYALVPMIARGIMLGADQPVILHMLDIPPAAEALNGVKMELIDAAFPLLKGVVATTDAVEGCTGVNVAVMVGGFPRKEGMERKDVMSKNVSIYKSQAAALEKHAAPNCKVLVVANPANTNALILKEFAPSIPEKNISCLTRLDHNRALGQISERLSVPVSDVKNVIIWGNHSSSQYPDVNHAKVQTSSGEKPVRELVKDDAWLDGEFISTVQQRGAAIIKARKLSSALSAASSACDHIRDWVLGTPEGTFVSMGVYSDGSYSVPSGLIYSFPVTCRNGDWSIVQGLPIDEVSRKKMDLTAEELKEEKDLAYSCLS | – | binds
